B1: LZM-009 (unmodified anti-PD-1 antibody, SEQ ID NOs: 76-77) (antibody, V domains shown)
VH: QVQLVQSGAEVKKPGASVKVSCKASGYTFTSYYMYWVRQAPGQGLEWMGGVNPSNGGTNFNEKFKSRVTITADKSTSTAYMELSSLRSEDTAVYYCARRDYRYDMGFDYWGQGTTVTVSS
VL: EIVLTQSPATLSLSPGERATISCRASKGVSTSGYSYLHWYQQKPGQAPRLLIYLASYLESGVPARFSGSGSGTDFTLTISSLEPEDFATYYCQHSRELPLTFGTGTKVEIK
notes: It was tested as a full antibody with an Fc region (K248, Eu numbering); also called parental antibody
B2: Composition C (LZM-009-IL-7 conjugate, DAR 1) (other)
VH: B1 VH
VL: B1 VL
chain: DCDIEGKDGKQYESVLXVSIDQLLDSXKEIGSNCLXNEFNFFKRHICDANKEGXFLFRAARKLRQFLKXNSTGDFXLHLLKVSEGTTILLNCTGQVKGRKPAALGEAQPTKSLXENKSLKEQKKLNDLCFLKRLLQEIKTCWNKILXGTKEH
modifications: not fully specified; Nle at 17, 27, 54, 69, 147; Hse at 36, 76, 114; N-terminal amine carries the glutaryl-PEG-azide handle of Composition AA, joined by a chemical linker to K248 of the antibody heavy chain; K248 (Eu numbering) of the Fc region, whose sequence is not given, carries a DBCO linker reacted with the azide of Composition AA (triazole); drug-antibody ratio 1
notes: Chemical conjugate; also called immunocytokine Composition C

Legend:
[1] = target: T1, Biotinylated Recombinant Human PD-1 (CD279)-Fc Chimera (carrier-free), Biolegend #789406 (human, UniProt Q15116 25-167, biotinylated (site not stated)); assay: ELISA (OD 450 nm): antibody coated on the plate, biotinylated human PD-1-Fc titrated, streptavidin-HRP detection; x axis 'Molecule (nM)'; EC50 table beside the plot
T1 construct: Bought reagent; also called h-PD1 Fc; Fc part of the bought chimera not given
T1 sequence (Q15116 25-167, change not shown): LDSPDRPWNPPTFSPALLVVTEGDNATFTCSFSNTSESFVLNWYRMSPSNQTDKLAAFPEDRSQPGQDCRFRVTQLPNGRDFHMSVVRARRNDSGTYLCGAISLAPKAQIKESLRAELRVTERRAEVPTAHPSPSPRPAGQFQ

[2] = target: T1, Biotinylated Recombinant Human PD-1 …; assay: ELISA (OD 450 nm): immunocytokine coated on the plate, biotinylated human PD-1-Fc titrated, streptavidin-HRP detection; x axis 'Molecule (nM)'; EC50 table beside the plot
Protocol: Each of these variant conjugates and unmodified antibodies were assayed by ELISA for their ability to bind to human PD-1 according to the following protocol.
Streptavidin-HRP was Sigma #RABHRP3. TMB solution was 3,3′,5,5′-Tetramethylbenzidine (Sigma T0440). Stop solution was Sigma #CL07STOP solution (0.5M H2SO4). Buffers were: Coating buffer was PBS. Wash buffer was PBS-0.02% Tween20. Blocking buffer was PBS-0.02% Tween20 1% BSA. Protein diluent was PBS-0.02% Tween20 0.1% BSA. STOP solution was 0.5M H2SO4. […] The ELISA plates were washed 4 times with 100 μl PBS—0.02% Tween20. and blocked with PBS—1% BSA. A serial dilution of h-PD1 Fc was prepared and plates were incubated for two hours at 37° C., with shaking (600 rpm). ELISA plates were washed and incubated with Streptavidin-HRP 30 min at RT, with shaking (600 rpm). ELISA plates were washed and incubated with ready-to-use TMB solution. Reaction was stopped and plates were read by OD450 on an Enspire plate reader.

Binder | EC50 [1] | EC50 [2]
B1 | 35 pM | 
B2 |  | 34.8 pM

Reference: patent publication US20240158537A1 (BRIGHT PEAK THERAPEUTICS, published 2024)
